Reference: US8076452 (dated 2011)

Molecular target: T1, streptavidin (UniProt P22629 37-163)
T1 construct: also called peroxidase-labeled streptavidin; streptavidin-Sepharose
Assay: SPR (BiacoreX, NTA chip), fusion protein immobilised, streptavidin injected
Description: The measurements of the dissociation constant were performed with a BiacoreX system and the sensor chip NTA of the company Biacore. The proteins generated during the expression described in Example 1 were investigated, i.e. FAB proteins, which had at the N terminus a peptide consisting of 15 amino acids as fusion partners and at the C terminus 6 histidines, which were needed for the immobilization on the sensor chip. The binding affinity of the proteins generated during the expression to streptavidin described in Example 1 was measured in the Biacore device according to manufacturer's instructions. The protein to be investigated is on the sensor chip, and a streptavidin solution having a defined concentration is sprayed in. The interaction (binding) between the two molecules is measured by the device and quantified as so-called resonance units (RU). For the measurement, the buffers specified by the manufacturer were used.

T1 sequence (P22629 37-163 limits assumed): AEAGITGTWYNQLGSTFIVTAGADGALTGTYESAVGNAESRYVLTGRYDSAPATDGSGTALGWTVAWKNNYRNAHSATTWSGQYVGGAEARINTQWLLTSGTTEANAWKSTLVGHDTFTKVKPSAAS

Binder | RU at 500 nM streptavidin [RU] | RU at 2 µM streptavidin [RU]
FAB protein (FABP from bovine hearts) with N-terminal 15-amino-acid peptide motif 3 and C-terminal His-tag of 6 histidines (other) DVEAWLDERVPLVETFVGTWKLVDSKNFDDYMKSLGVGFATRQVGNMTKPTTIIEVNGDTVIIKTQSTFKNTEISFKLGVEFDETTADDRKVKSIVTLDGGKLVHVQKWNGQETSLVREMVDGKLILTLTHGTAVCTRTYEKQAHHHHHH | 786 | 946
FAB protein (FABP from bovine hearts) with N-terminal 15-amino-acid peptide motif 4 and C-terminal His-tag of 6 histidines (other) DVEAWIADPAVHFTTFVGTWKLVDSKNFDDYMKSLGVGFATRQVGNMTKPTTIIEVNGDTVIIKTQSTFKNTEISFKLGVEFDETTADDRKVKSIVTLDGGKLVHVQKWNGQETSLVREMVDGKLILTLTHGTAVCTRTYEKQAHHHHHH | 478 | 644
FAB protein (FABP from bovine hearts) with N-terminal 15-amino-acid peptide motif 1 and C-terminal His-tag of 6 histidines (other) DLYDIDRNWVGHPQGFVGTWKLVDSKNFDDYMKSLGVGFATRQVGNMTKPTTIIEVNGDTVIIKTQSTFKNTEISFKLGVEFDETTADDRKVKSIVTLDGGKLVHVQKWNGQETSLVREMVDGKLILTLTHGTAVCTRTYEKQAHHHHHH | 62 | 233
